In this test the target is zebrafish ΔP2X4-B (zebrafish) (UniProt F8W463). In words: crystal structure.

In PMC3391165 one finds stoichiometry N data, which are given here for one substance.

In the case of “zebrafish ΔP2X4-B (from UniProt F8W463 1-389) (receptor)”, the stoichiometry N is 3.

As usually defined, the stoichiometry N is a count of units in the complex or per binding partner.
